This note sets out measurements from PMC3349575.

In this assay the target is XD-CGFP fusion protein (X domain of the measles virus phosphoprotein fused to the C-terminal half of eGFP) (UniProt P03422). As to the kind of experiment: split-GFP reassembly assay (fluorescence to OD600 ratio of E. coli co-expressing NGFP-N_TAIL and XD-CGFP). The following applies: parent: est. 1.1; read off a plot.
Sequence of UniProt P03422 (P03422 459-507): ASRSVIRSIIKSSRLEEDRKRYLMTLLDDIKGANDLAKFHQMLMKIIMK
As to “NGFP-wtN_TAIL fusion protein (C-terminal domain of the measles virus nucleoprotein fused to the N-terminal half of eGFP) mutant 1 (substitutions not printed)”, the response (x10^4 fluorescence intensity / OD600) turned out to be 1.1. Consider “NGFP-wtN_TAIL fusion protein (C-terminal domain of the measles virus nucleoprotein fused to the N-terminal half of eGFP) mutant 2 (substitutions not printed)”, for which the response (x10^4 fluorescence intensity / OD600) was 0.9. Next, “NGFP-wtN_TAIL fusion protein (C-terminal domain of the measles virus nucleoprotein fused to the N-terminal half of eGFP) mutant 3 (substitutions not printed)”: 0.54.
